Data reported in US6808930B1, “Therapeutic agents” (priority 1997, dated 2004).

Assays:
L1210 cells [1] = experiment: Subcellular fractionation of cells exposed to 125I-labelled protein; assay type: cell-based, murine
Protocol: The intracellular distribution of MAL was further analysed in cells exposed to ^125I-labelled MAL with ^[…] α-lactalbumin and IgG as controls (FIG. 4). Subcellular fractions were prepared after mechanic disruption of the cells and the amount of radiolabelled MAL in each fraction was determined in relation to the total cell-associated radioactivity measured prior to disruption of the cells. Fraction P1 contained mostly cell nuclei, P2 contained plasma-Golgi-, ER-membranes and mitochondria, P3 contained small vesicles and the supernatant. Fraction S contained the cytosolic proteins. The purity of the fractions was determined by quantitation of specific markers (DNA, alkaline phosphatase, RNA and catalase).
Specifically, cellular subfractionation was performed as described (J. Graham., Isolation of subcellular organelles and membranes., p161-1019. In D. Rickwood ed., Centrifugation, a practical approach, 2nd ed. IRL Press, Washington D.C.). L1210, A549 or HRTEC cells in suspension (3×10^6 cells/ml, 100 μla were incubated with 1×10^6 cpr of ^125I-labelled MAL, ALA or IgG for various times at 37° C. The cells were washed three times with ice-cold PBS and the supernatants were discarded. The cells were suspended in 500 μl of homogenisation buffer (10 mM Tris-HCl, pH 7.8, 5 mM MgCl2 and 2 mM CaCl2 for L1210 cells and 0.15M NaCl, 2 mM EDTA, pH 7.5 for A549 cells), and homogenised by 50 strokes in a Dounce homogenizer (Thomas, Philadelphia, USA) with pestle size 415. Sucrose was added to a final concentration of […] and the homogenate was centrifuged at 100×g for 25 min at RT. The first pellet contained nuclei, large mitochondria and large sheets of plasma membrane. The remaining supernatant was further centrifuged at 12 000×g for 30 min at 4° C. resulting in a second pellet containing mitochondria endoplasmic reticulum, plasma membrane and cytoplasmic organelles. The supernatant was finally centrifuged at 150,000×g for 2 h at 4° C. resulting in a pellet containing small vesicles, endoplasmic reticulum and a supernatant containing cytosolic proteins.

L1210 cells [2] = experiment: Cell viability by trypan blue exclusion; assay type: cell-based, murine; details: L1210 cell line
Protocol: (§1) Remaining cells were analysed for DNA fragmentation.

[3] = tested on: digitonin-permeabilized cells; experiment: DNA fragmentation in digitonin-permeabilized cells; assay type: cell-based; details: 0.4 mg/ml
Protocol: Briefly, 1×10^6 cells were incubated in 100 μl of nuclear transport buffer (NTB), with the addition of 1 μg/ml each of leupeptin, aprotinin, antipain, and 40 μg/ml of digitonin for 5 min at room temperature and washed by centrifugation at 320×g for 10 min in NTB. Biotinylated protein (5 μl, 5 mg/ml) was added to the cells in a total volume of 100 μl NTB supplemented with phosphcreatin, creatine phosphokinase and ATP, incubated for various time at RT and washed twice in NTB by centrifugation at 320×g for 10 min. The cells were treated with 0.2% Triton-X100 in NTB for 6 min and washed finally 1:100 dilution of fluorescein-conjugated strepatvidin was added for 30 min at RT and washed. The cells were then inspected by fluorescence microscopy in a Nikon Microphot (Japan) microscope or by laser scanning confocal microscopy in a BioRad MRC-1024 instrument.
When adding 0.4 mg/ml of MAL to digitonin-permeabilized cells, HMW DNA fragments were formed after 1 hour and oligonucleosomal fragments after 2 hours. […] IgG was not detected in isolated nuclei or in nuclei of digitonin-permabilized cells (FIG. 7a).

A549 cells [4] = experiment: DNA fragmentation by gel electrophoresis and FIGE; assay type: cell-based, human
Protocol: as §1

HRTEC cells [5] = experiment: DNA fragmentation by gel electrophoresis and FIGE; assay type: cell-based, human; details: 4 mg/ml for 24 h
Protocol: as §1

A549 cells [6] = experiment: Nuclear uptake of biotinylated protein, confocal microscopy; assay type: cell-based, human
Protocol: (§2) To detect intracellular protein, the cells were fixed at various times after addition of 0.3 mg/ml of biotinylated MAL for 5 min in phosphate-buffered paraformaldehyde (4%) (B. Sander et al., Immunol. Rev. (1991) 119: 65-92) at room temperature, washed in PBS, and permeabilized with 0.1% saponin in PBS. FITC conjugated streptavidin (diluted 1:100 in 0.1% saponin) was added and the cells were incubated for 30 min at room temperature. The cells were washed twice in PBS-saponin and once in PBS, mounted on a glass slide and analysed in a Bio-Rad 1024 laser scanning confocal equipment (Bio Rad Laboratories, Hemel-Hempstead, UK) attached to a Nikon Diaphot inverted microscope.

L1210 cells [7] = experiment: as above; assay type: cell-based, murine
Protocol: as §2

HRTEC cells [8] = experiment: as above; assay type: cell-based, human; details: biotinylated MAL (1 mg/ml elsewhere in the source)
Protocol: as §2, with “To detect intracellular protein, the cells were fixed at various times after addition of 0.3 mg/ml of biotinylated MAL for 5 min in phosphate-buffered paraformaldehyde (4%) (B.” left out

B1: MAL: protein complex from human milk casein containing oligomeric forms of α-lactalbumin; the apoptosis-inducing fraction (protein, UniProt P00709 20-142, looked up)
Alpha-lactalbumin: KQFTKCELSQLLKDIDGYGGIALPELICTMFHTSGYDTQAIVENNESTEYGLFQISNKLWCKSSQVPQSRNICDISCDKFLDDDITDDIMCAKKILDIKGIDYWLAHKALCTEKLEQWLCEKL
modifications: oligomeric form from milk casein
notes: protein complex from human milk casein containing oligomeric forms of α-lactalbumin; the apoptosis-inducing fraction
For B1, the “share of total cell associated radioactivity in nuclear fraction (P1)” value (L1210 cells [1]; 6 h, 125I-labelled) was “about 78%”, the “total cell associated radioactivity” value (L1210 cells [1]; 6 h, 125I-labelled, denominator in brackets) was 44000 and the “radioactivity in nuclear fraction (P1)” value (L1210 cells [1]; 6 h, 125I-labelled, numerator in brackets) was 34200. For the same molecule, the “radioactivity in cytosolic fraction” value (L1210 cells [1]; final time-point) was 4500 cpm, the “radioactivity in pellet 2” value (L1210 cells [1]; final time-point) was 4500 cpm and the “radioactivity in pellet 3” value (L1210 cells [1]; final time-point) was 800 cpm. The “share of radioactivity in cytosolic fraction” value (L1210 cells [1]; final time-point) was 10%, the “share of radioactivity in pellet 2” value (L1210 cells [1]; final time-point) was 10% and the “share of radioactivity in pellet 3” value (L1210 cells [1]; final time-point) was 2%. The “sensitivity to MAL-induced apoptosis” value (L1210 cells [2]) was “highly sensitive”, the “time after which HMW DNA fragments were formed” value [3] was 1 h and the “time after which oligonucleosomal fragments were formed” value [3] was 2 h. For the same molecule, the “concentration at which HMW fragmentation was maximal” value (A549 cells [4]) was 1.5 mg/mL, the “concentration at which no chromosomal DNA was seen” value (A549 cells [4]) was 2.5 mg/mL and the “oligonucleosomal DNA fragmentation” value (A549 cells [4]) was “No oligonculeosomal fragmentation was detected”. The “time at which HMW fragmentation was first detected” value (A549 cells [4]; 1.0 mg/ml) was 6 h, the “HMW DNA fragmentation” value (HRTEC cells [5]) was “did not undergo HMW DNA fragmentation” and the “incubation time after which cytoplasmic, granular fluorescence was detected” value (A549 cells [6]; FIG. 3) was 3 h. For the same molecule, the “incubation time at which nuclear accumulation was maximal” value (A549 cells [6]; FIG. 3) was 24 h, the cytoplasmic staining (A549 cells [6]; biotinylated MAL) was “granular fluorescence evenly distributed throughout the cell” and the “cell nuclei stained brightly” value (A549 cells [6]; biotinylated MAL, longer incubation times (time not given)) was “About 15%”. The “cells with nuclear staining” value (L1210 cells [7]; 0.3 mg/ml biotinylated protein, after about 2 hours (first detected)) was “about 10%”, the “cells with nuclear staining” value (L1210 cells [7]; 0.3 mg/ml, after 1 hour) was 10% and the cytoplasmic staining (L1210 cells [7]; biotinylated MAL) was “Cytoplasmic staining was not observed”. The nuclear uptake (HRTEC cells [8]) was “Nuclear uptake was not observed”.
